# Patent US10544215B2, “1-(Chloromethyl)-2,3-dihydro-1H-benzo[e]indole dimer antibody-drug conjugate compounds, and methods of use and treatment” (priority 2013, dated 2020)
# System: EOL-1
# Assay: EOL-1 in vitro cell viability (CellTiter-Glo cell proliferation assay)
# Assay type: cell-based, human
# Settings: at 3 days versus ADC concentrations (μg/ml)
# Description: The CellTiter-Glo® Luminescent Cell Viability Assay is a commercially available (Promega Corp., Madison, Wis.), homogeneous assay method based on the recombinant expression of Coleoptera luciferase (U.S. Pat. Nos. 5,583,024; 5,674,713; 5,700,670). This cell proliferation assay determines the number of viable cells in culture based on quantitation of the ATP present, an indicator of metabolically active cells (Crouch et al (1993) J. Immunol. Meth. 160:81-88; U.S. Pat. No. 6,602,677). The CellTiter-Glo® Assay was conducted in 96 well format, making it amenable to automated high-throughput screening (HTS) (Cree et al (1995) AntiCancer Drugs 6:398-404). The homogeneous assay procedure involves adding the single reagent (CellTiter-Glo® Reagent) directly to cells cultured in serum-supplemented medium. Cell washing, removal of medium and multiple pipetting steps are not required. The system detects as few as 15 cells/well in a 384-well format in 10 minutes after adding reagent and mixing. The cells may be treated continuously with ADC, or they may be treated and separated from ADC.
# The homogeneous “add-mix-measure” format results in cell lysis and generation of a luminescent signal proportional to the amount of ATP present. The amount of ATP is directly proportional to the number of cells present in culture. […] Viable cells are reflected in relative luminescence units (RLU). […]
# Efficacy of ADC was measured by a cell proliferation assay employing the following protocol ([…] GLO™ Luminescent Cell Viability Assay, Promega Corp. Technical Bulletin TB288; Mendoza et al (2002) Cancer Res. 62:5485-5488): • 1. […] The plate was incubated at room temperature for 10 minutes to stabilize the luminescence signal. • 8. Luminescence was recorded and reported in graphs as RLU=relative luminescence units. • Data are plotted as the mean of luminescence for each set of replicates, with standard deviation error bars. […]
row,Molecule,cell-killing activity (EOL-1 in vitro cell viability)
1,ADC 125: Thio Hu Anti-CD33 15G15.33 HC A118C-MC-MMED-(CBI dimer phos); linker-CBI intermediate 57 (conjugate) VH: QVQLVQSGAEVKKPGSSVKVSCKASGGIFSNHAISWVRQAPGQGLEWMGGIIPIFGTANYAQKFQGRVTITADESTSTAFMELSSLRSEDTAVYYCAREWADVFDIWGQGTMVTVSS VL: EIVLTQSPLSLPVTPGEPASISCRSSQSLLHSNGYNYLDWYLQKPGQSPQLLIYLGVNSVSGVPDRFSGSGSGTDFTLKISRVEAEDVGVYYCMQALQTPWTFGQGTKVEIK,modest dose response cell-killing activity
2,ADC 127: Thio Hu Anti-CD33 15G15.33 HC A118C-MC-ED-(CBI dimer DVB diphos); linker-CBI intermediate 66 (conjugate) VH: QVQLVQSGAEVKKPGSSVKVSCKASGGIFSNHAISWVRQAPGQGLEWMGGIIPIFGTANYAQKFQGRVTITADESTSTAFMELSSLRSEDTAVYYCAREWADVFDIWGQGTMVTVSS VL: EIVLTQSPLSLPVTPGEPASISCRSSQSLLHSNGYNYLDWYLQKPGQSPQLLIYLGVNSVSGVPDRFSGSGSGTDFTLKISRVEAEDVGVYYCMQALQTPWTFGQGTKVEIK,"potent, dose responsive cell-killing activity"
3,ADC 129: Thio Hu Anti-CD33 15G15.33 HC A118C-MC-ED-(CBI dimer DVB phos); linker-CBI intermediate 68 (conjugate) VH: QVQLVQSGAEVKKPGSSVKVSCKASGGIFSNHAISWVRQAPGQGLEWMGGIIPIFGTANYAQKFQGRVTITADESTSTAFMELSSLRSEDTAVYYCAREWADVFDIWGQGTMVTVSS VL: EIVLTQSPLSLPVTPGEPASISCRSSQSLLHSNGYNYLDWYLQKPGQSPQLLIYLGVNSVSGVPDRFSGSGSGTDFTLKISRVEAEDVGVYYCMQALQTPWTFGQGTKVEIK,"potent, dose responsive cell-killing activity"
